Measurements as given in the nanobody polyreactivity screen of Harvey et al. (2022).

Assay: yeast display, Sf9 membrane polyspecificity reagent, FACS + sequencing; frameworks hold sequencing errors
Outline: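 In a synthetic yeast display library (Saccharomyces cerevisiae BJ5465), nanobody expression was induced with galactose for 36–48 hours. FACS gates were set low and high (top ~1%) using anti-HA fluorescence for expression and streptavidin fluorescence for binding of the Sf9 membrane reagent. Each polyreactivity label is drawn from the gate of origin.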

## QVQLVESGGGLVQAGGSLRLSCAASGRIFYLYTMGWYRQAPGKEREFSTYYADSVKGRFTISRDNAKNTVYLQMNSLKPEDTAVYYCNKGSDGFTTGEGDYWGQGTQVTVSS
  polyreactivity (PSR sort gate): low polyreactivity

## QVQLVESGGGLVQAGGSLRLSCAASGSIFSFNAMGWYRQAPGKERELVAAITTSGGSTYADSVKGLFTISRDNAKNTVYLQMNSLKPEDTAVYYCAVVGEVEGYYWDDYWGQGTKVTVSS
  polyreactivity (PSR sort gate): low polyreactivity

## QVQLVESGAGLVQAGGSLRLSCAASGFTFKSNAMGWYRQAPGKERELVATISWGGASTSYADSVKGRFTISRDNAKNNVYLQMNSLKPEDTAVYYCKVRAQRRHGGYDHWGLGTQVTVSS
  polyreactivity (PSR sort gate): low polyreactivity

## QVQLVESGGGLLQAGGSLRLSCAASGIIFFKYAMGWYRQAPGKERELVAAINRSGGSTYYADSVKGRFTISRDNAKNSVSLQMNSLKPEDTAVYYCNARLTLRSYDYWGQGTQVTVSS
  polyreactivity (PSR sort gate): low polyreactivity

## QDQLVESGGGLVQAGGSLRLSCAASGSLFDLYAMGWYRQAPGKERELVAAISWSDSRTYYADSVKGRFTISRDNAKNTVYLQMNSLKPEDTAVYYCAADYRYPDNYGGYDYWGQGTQVTVSS
  polyreactivity (PSR sort gate): low polyreactivity

## QVQLVESGGGLVQARGSLRLSCEASGFTFGSNTMACYRQAPGKERELVAAITRRGGSTNYADSVKGRFTISRDNAKNTVYLQMNSLKPDDTAVYYCARDYRSYTVSYDTSYDYWGQGTQVTVSS
  polyreactivity (PSR sort gate): high polyreactivity

## QVQLVESGGGLVQAGGSLRLTCAASARTFVGNAMGWYRQAPGKERELVAVITGSGARTYYADSVKGRFTISRDNAKNTVYLQMNSLKPEDTAVYYCAGSGYSGQYRSYYWGQGTQVTVSS
  polyreactivity (PSR sort gate): high polyreactivity

## QVHLVESGGGLVQAGGSLRLSCAASGSTFSGYAMGWYRQAPGKERELVATITRRGGNTYYADSLKGRFTISRDNAKNTVYLQMNSLKPEDTAVYYCAKDGRVHSPYDYWGQGTQVTVSS
  polyreactivity (PSR sort gate): low polyreactivity

## QVQLVESGGGLVQAGGSLRLSCAASGSIFYSYAMGWYRQAPGKEREFVAAISQLGGSTYYADSVKGRFTISRDNAKNTVYLQMNSLKPEDTAVYSCNAVYRRAQFLYGYDYWGQGTQVTVSS
  polyreactivity (PSR sort gate): high polyreactivity

## QVQLVESGGGLVQAGGSLRLSCAASGFTFYRNAMGWYRQAPGKERELVAAITRRGGSTYYADSVKGRFTISRDNAKNTVYLQMISLKPEDTAVYYCSKSYRFPSVGPPGELDYWGQGTQVTVSS
  polyreactivity (PSR sort gate): high polyreactivity

## QVQLVESGGGLVQAGGSLRLSCAAYGFIFSYYTMGWYRQAPGKERELVAAISYSGGSTYYADSVKGRFTISRDNAKNNVYLQMNSLKPEDTAVYYCTAVAAATYDYWGQGTQVTVSS
  polyreactivity (PSR sort gate): high polyreactivity

## QVQLVESGGGLVQAGGSLRLSCAASGRIFRFYAMGWYRQAPGKERELVAAITRNVGSTFYADSVKGRFTISRDNAKNTVYLQMNSLKPEDTAVYYCAAESDYYYRYTFDYWGQGTLVTVSS
  polyreactivity (PSR sort gate): low polyreactivity

## QVQLVESGGGLVQAGGSLRLSCAASGYIFRYYAMGWYRQAPGKERELVAAISWNGGRTYYADSVKGRFTISRDNAKNTVYLQMNSLKPEDTAVYYCNTYWDGAREYDYWGQGTQVTVSS
  polyreactivity (PSR sort gate): high polyreactivity

## QVQLVESGGGLVQAGGRLRLSCAASVFIFGIYASGWYRQAPGKDRELVAAITWDTGSTYYADSVKGRFTISRDNAKNTVYLQMNRLKPEDTAVYYRAVDGWDLTYYDSYYSWGQGTQVTVSS
  polyreactivity (PSR sort gate): high polyreactivity

## QVQLVESGGGLVQAGGSLRFSCAASGRTIYYNTMGWYRQAPGKERELVAAINYGGSTYYADSVKGRFTISRDNAKNTVYLQMHSLKPEDTAVYYCNAVTRPKTWRYDYWGQGPQVTVSS
  polyreactivity (PSR sort gate): high polyreactivity

## QVQLVESGGGLFKAGGSLRLRCAPSGSIFDYNTMAWYRQAPGKERQFVAAISSARGGTSYADSVKGRFTISRDNAKNTVYLQMNSLKPEDTAVYYCAALIILTPYQRQYWKYGAYFYWGQGTQVTVSS
  polyreactivity (PSR sort gate): high polyreactivity

## QVQLVESGGGLVQAGGSLRLSCAASGRNFFRYAMGWYRQAPGKERELVAAISRSGGRTYYADSVKGRCTLSRDNAKNTVFLQMNSLNREDTAVYYCAVRYRQYSQTVASDYGYWGPGTQVTVSS
  polyreactivity (PSR sort gate): high polyreactivity

## QVQLVESVVGLVQAGGSLRLSCAASGGTFSFNAIGWYRQAPGKETELVAAITQTGDGTYYADSVKGRFTISRDNAKNSVYLQMNIMKPEDTAVYYCNTDSIPFVPWFRFDYWGQGTQVTVSS
  polyreactivity (PSR sort gate): low polyreactivity

## QVQLVESGGGLVQAGGRLRLSCAASGSTFVKNTMGWYIQPPGKERELVAAISSRGGSTYYADSVKGRFTISRDNEKNTVYFQMNSLKPEDTAVYYCAKDGRVSRDFDYWGQGTQVTVSS
  polyreactivity (PSR sort gate): low polyreactivity

## QVQLVESGGGLVQAGGSLRLRCAASGFNSVRNAMGWYRPAPGKEREFVAAISGGGGSTYYADSVKGRFTISRDNAMNTVYLQMNSLKPEDTAVYYCAPRSYWGQGTQVTVSS
  polyreactivity (PSR sort gate): high polyreactivity

## QVQLVESGGGLVQAGGSLRLSCAASGSTFLYNTMGWYRQAPGKERELVATITSRGDRTYYADSVKGRFTISRDNAKNTVYLQMNSLNPEDTGVYYCARDYGPYLSPENPAPMDYWGQGTQVTVSS
  polyreactivity (PSR sort gate): low polyreactivity

## QVQLVESGGGLVQAGGSLRLSCSASVRTFYRNSMGWYRQAPGKEREFVAVISVSGGSTYYADSVKGRFTISRDNAKNTVYLQMNSLKPEDTAVYYCAADEYYTFSSFELRRMDYWGQGTQVTVSS
  polyreactivity (PSR sort gate): low polyreactivity

## QVQLVESGGGLVQAGGSLRLSCAASGSTLVDYAMGWYRQAPGKERELVAAISASGGTTYYADSVKGRFTISRDNAKNTVYLQMNSLKPEDTAVYYCAKYHYYYFPYDYWGQGTQVTVSS
  polyreactivity (PSR sort gate): low polyreactivity

## QVQLVESGGGIVQAGGSLRLICAASGITFTVYAMGWDRTAPWKARELVAASCSSGSTTYADSVKGRFTFSRDNAKNTVYLQMNSVKPQDPAVYYCAAEGYYRFSTAYFRKKYEYWGQGTQVTVSS
  polyreactivity (PSR sort gate): low polyreactivity

## QDQLVESGGGLVQAGGSLRLSCAASGRIIRQYAMGWYRQAPGKERELVAVISAGGARTYYADSVKGRFTISRDNAKNTVYLQMNSLKPEDTAVYYCAVSYPPGAYRRHFRYGYWGQGTQVTVSS
  polyreactivity (PSR sort gate): high polyreactivity

## QVQLEESGGGLVQAGGRLRLSCAASVSIFGVYTMGWYRPAPGKERELVAAIRGVGSTNYADSVKGRFTISRDNAKNTVYLQMKSLKTEDTAVYYCAARYAYGMWGQGTHVTVSS
  polyreactivity (PSR sort gate): low polyreactivity

## QVQLVESAGGLVQAGGTLRLSCAASGSIFQFYAMGWYRHAPGKERELVAVITTSGVSTYYADSVKGRFTISRDNAKNTVYLQMNSLKPEDTGVYYCAARQWTSASYDYWGQGSQVTVSS
  polyreactivity (PSR sort gate): low polyreactivity

## QVQLVESGGGLVQAGGSLRLSCAASGIIFDAYGMGWYRQAPGKEMELVAAINTVGSTNYADSVKGRFTISRDNAKNTVYLQMNSLKPEDTAVYYCAADSYFYDPYDYWGQGTQVTVSS
  polyreactivity (PSR sort gate): low polyreactivity

## QVQLVESGGGLVQAGCSLRLSSAASGFTFGYYGMGWYRQAPGKERELVAAISQSSTDTYYADSVKGRFTISRDNAKNTVYLQMNSLKPEDTPVYYCAAHPTDSEYDDYEYWGQGTQVTVSS
  polyreactivity (PSR sort gate): low polyreactivity

## QVQLVESGGGLVQAGGSLRLSSAASGSTFRTYTMGWYRQAPGKERELVASITSGGRTYYADSVKGRFTISRDNAKNTVYLQMNSMKPEDTAVYYCAADVCKLYDYWGQGTQVTVSS
  polyreactivity (PSR sort gate): low polyreactivity

## QVQLVESGGGLVQAGGSLRLSCAASGSIFYPNAMGWYRQAPGKERELVAAITVGGGRTYYADSVKGRFTISRDNAKNTVYLQMNSLKPEDTAVYYCAAQEIVRYPRFDKYDYWGQGTQVTVSS
  polyreactivity (PSR sort gate): low polyreactivity

## QVQLVESGGGLVQAGGSLRLSCAASGRLFKRYNMGWYRQGPGKDRELVAAIRSGGSTNYADSVKGRFTISRDNAKNTVYLPMNSLKPEDTAVYYCAARSTAYRGGSYAYDYWGQGTQVTVSS
  polyreactivity (PSR sort gate): high polyreactivity

## QVQLVESGGGLVQAGGSLRLSCAASGRIFSHYAMGWYRQAPGKERELVAAINRSGGSTYYADSVKGRFTISRDNAKNTVYLQMNSLKPEDTAVYYCAADVKYGYDWGQGTQVTVSS
  polyreactivity (PSR sort gate): high polyreactivity

## QVQLVESGGGLVQAGGSLRLSCAASGRTFRRYAMGWYRQAPGKERELVAAISFGGRTYYADSVKGRFTISRDNAKNTVYLQMNSLKPEDTAVYYCAVRSYDQLIVPRDYWGQGTQVTVSS
  polyreactivity (PSR sort gate): high polyreactivity

## QVQIVESGGGLVQAGGSLRLSCAASGITFHDYAMGWDRQEPGQERELVATIRSSTYYADSVKGRFTISRDTAKNTVYLQMNSLKTEDTAVYYCNVRLSYSYISPSDWNFDYWGQGTQVTVSS
  polyreactivity (PSR sort gate): low polyreactivity

## QVQLVESGGGLVQAGGILRLSCAASGSTFESNTMGGYRQAPGKERELVAAISYSGGRTYYADSVKGRFTISRDNAKNTVYLQMNSLKPEDTAVYYCAARWSVSYHYWGQGTQVTVSS
  polyreactivity (PSR sort gate): high polyreactivity

## QVQLVESGGGLVQAGGILRLSCAASGYTFYFYAMGWYRQAPGKERELVAAITGGGTTSYADSVKGRFTISRDNAKNTVYLQMNSLKPEDTAVYYCNVLFADKSDYWGQGTQVTVSS
  polyreactivity (PSR sort gate): low polyreactivity

## QVQLVESGGGLVQAGGSLRLSCAASGRIFKVYAMGWYRQAPGKERELVATISRGGSTYYADSVKGRFTISRDNAKNTVYLQMNSLKPEDTAVYYCAKQRERYYWFGAWSYDYWGQGTQLTVSS
  polyreactivity (PSR sort gate): low polyreactivity

## QVQLVESGGGLVPAGGSLRLSCAASGRTFYRYARGWYRKAHGKERELVASITRDGRTNYADSVKGSFTISRDNAKNTVYLQMNSLKPEDTAFYYCNAKLKITHSSSDYWGQGTQVTVSS
  polyreactivity (PSR sort gate): high polyreactivity

## QVHLVESGGGLVQAGGSLRLSCAASGRIMVHNAMGWYRQAPGKERELVAVITARGASTYYADSVKGRFTISRDNAKNTVYLQMNSLKPEDTAVYYCATDKRPKYYNQYDYWGQGTQVTVSS
  polyreactivity (PSR sort gate): low polyreactivity

## QVQLVESGGGLVQAGGSLRLSCAASGSIFVSYAMGWYRQAPGKERELVAAITSAGTTYYADSVKGRFTISRDNAKNTVYLQMNSLKQEDTAVYYCNTDASFKRTRVSPETEYGYWGQGTQVTVSS
  polyreactivity (PSR sort gate): low polyreactivity

## QVQLVESGGGLVQAGGSLRLSCAASGRIFAHYAMGWYRQAPGKERELVADIRQSGGRTYYADSVKGRFTISRDNAKNTVYLKMNSLKPEDTAVYFCATDYGSWGDYSGKYDYWGQGTQVTVSS
  polyreactivity (PSR sort gate): low polyreactivity

## QVQLVESCGGLVQAGGSLRLSCAASRSTFVKYTMGWYRQAPGKERELVATITWSGGSTYYADSVKGRFTISRDNAKNTVYLQLMSLKPEDTAVYYGAIDSGVYRTYQGRWYYYTDFYWGQGTQVTVSS
  polyreactivity (PSR sort gate): low polyreactivity
